In series [1] the target is T1, Dpb11 wild-type (Saccharomyces cerevisiae (budding yeast), UniProt P47027 1-764).
T1 sequence: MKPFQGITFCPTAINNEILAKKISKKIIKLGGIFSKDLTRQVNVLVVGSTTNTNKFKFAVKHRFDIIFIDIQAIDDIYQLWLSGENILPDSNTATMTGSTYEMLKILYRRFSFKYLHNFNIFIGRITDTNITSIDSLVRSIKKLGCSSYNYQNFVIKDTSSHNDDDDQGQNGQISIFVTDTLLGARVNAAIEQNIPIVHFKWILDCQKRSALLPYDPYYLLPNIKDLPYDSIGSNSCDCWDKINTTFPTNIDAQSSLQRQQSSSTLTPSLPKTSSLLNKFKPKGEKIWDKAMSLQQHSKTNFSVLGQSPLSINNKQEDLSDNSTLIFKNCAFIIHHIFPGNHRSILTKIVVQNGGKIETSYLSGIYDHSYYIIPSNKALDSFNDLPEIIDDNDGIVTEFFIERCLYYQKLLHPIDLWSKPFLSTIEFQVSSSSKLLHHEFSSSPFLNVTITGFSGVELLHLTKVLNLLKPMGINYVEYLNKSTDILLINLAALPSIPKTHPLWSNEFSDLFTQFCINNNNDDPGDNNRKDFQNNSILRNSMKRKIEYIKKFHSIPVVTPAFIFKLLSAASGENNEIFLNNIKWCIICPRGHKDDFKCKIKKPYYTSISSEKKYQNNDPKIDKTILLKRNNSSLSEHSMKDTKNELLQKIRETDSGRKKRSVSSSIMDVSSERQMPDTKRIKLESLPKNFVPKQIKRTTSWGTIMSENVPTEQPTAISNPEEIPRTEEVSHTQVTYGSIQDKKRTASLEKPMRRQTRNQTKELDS
Put plainly: EMSA; nearly 80% bound at 20 nM; EMSA: 1 nM 32P-DNA, 20 mM Tris-HCl pH 7.5, 0.1 mM EDTA, 0.2 mM DTT, 10% glycerol, 40 mg/ml BSA (so in the source), 5 min at 30 C, 0.7% native agarose in 0.5x TBE; GST pull-down: 40 mM Tris-HCl pH 7.5, 100 mM NaCl, 0.1 mM EDTA, 10% glycerol, 0.1% Triton X-100, 1 mM DTT, 0.1 mg/ml BSA, 25 C. Particulars: protein: recombinant, (nickel column purification), label: 32P.

In series [2] the target is TopBP1 full-length (Homo sapiens, UniProt Q92547 1-1522). As to the kind of experiment: EMSA; nearly 50% shifted at 20 nM; EMSA: 1 nM 32P-DNA, 20 mM Tris-HCl pH 7.5, 0.1 mM EDTA, 0.2 mM DTT, 10% glycerol, 40 mg/ml BSA (so in the source), 5 min at 30 C, 0.7% native agarose in 0.5x TBE; GST pull-down: 40 mM Tris-HCl pH 7.5, 100 mM NaCl, 0.1 mM EDTA, 10% glycerol, 0.1% Triton X-100, 1 mM DTT, 0.1 mg/ml BSA, 25 C. Particulars: protein: recombinant, label: 32P. (In general: A gel shift assay detects complexes by their altered migration in electrophoresis.)

Series [3] concerns the target T1, Dpb11 wild-type. As to the kind of experiment: EMSA; more than half bound at 40 nM; EMSA: 1 nM 32P-DNA, 20 mM Tris-HCl pH 7.5, 0.1 mM EDTA, 0.2 mM DTT, 10% glycerol, 40 mg/ml BSA (so in the source), 5 min at 30 C, 0.7% native agarose in 0.5x TBE; GST pull-down: 40 mM Tris-HCl pH 7.5, 100 mM NaCl, 0.1 mM EDTA, 10% glycerol, 0.1% Triton X-100, 1 mM DTT, 0.1 mg/ml BSA, 25 C. Particulars: protein: recombinant; (nickel column purification); label: 32P.

Series [4] has as its target T1, Dpb11 wild-type. As to the kind of experiment: EMSA; 80 nM required to bind more than half; EMSA: 1 nM 32P-DNA, 20 mM Tris-HCl pH 7.5, 0.1 mM EDTA, 0.2 mM DTT, 10% glycerol, 40 mg/ml BSA (so in the source), 5 min at 30 C, 0.7% native agarose in 0.5x TBE; GST pull-down: 40 mM Tris-HCl pH 7.5, 100 mM NaCl, 0.1 mM EDTA, 10% glycerol, 0.1% Triton X-100, 1 mM DTT, 0.1 mg/ml BSA, 25 C. Particulars: protein: recombinant, (nickel column purification), label: 32P.

In series [5] the target is T1, Dpb11 wild-type. Put plainly: EMSA; 320 nM required to bind more than half; EMSA: 1 nM 32P-DNA, 20 mM Tris-HCl pH 7.5, 0.1 mM EDTA, 0.2 mM DTT, 10% glycerol, 40 mg/ml BSA (so in the source), 5 min at 30 C, 0.7% native agarose in 0.5x TBE; GST pull-down: 40 mM Tris-HCl pH 7.5, 100 mM NaCl, 0.1 mM EDTA, 10% glycerol, 0.1% Triton X-100, 1 mM DTT, 0.1 mg/ml BSA, 25 C. Particulars: protein: recombinant; (nickel column purification); label: 32P; blunt.

Where [6] appears, read: bubble: 31 bp and 22 bp duplexes flanking T80/T80 loop.
[7] abbreviates: fork 1:2, 31 bp duplex with two T80 arms.

Sequence of TopBP1 full-length (Q92547 whole entry): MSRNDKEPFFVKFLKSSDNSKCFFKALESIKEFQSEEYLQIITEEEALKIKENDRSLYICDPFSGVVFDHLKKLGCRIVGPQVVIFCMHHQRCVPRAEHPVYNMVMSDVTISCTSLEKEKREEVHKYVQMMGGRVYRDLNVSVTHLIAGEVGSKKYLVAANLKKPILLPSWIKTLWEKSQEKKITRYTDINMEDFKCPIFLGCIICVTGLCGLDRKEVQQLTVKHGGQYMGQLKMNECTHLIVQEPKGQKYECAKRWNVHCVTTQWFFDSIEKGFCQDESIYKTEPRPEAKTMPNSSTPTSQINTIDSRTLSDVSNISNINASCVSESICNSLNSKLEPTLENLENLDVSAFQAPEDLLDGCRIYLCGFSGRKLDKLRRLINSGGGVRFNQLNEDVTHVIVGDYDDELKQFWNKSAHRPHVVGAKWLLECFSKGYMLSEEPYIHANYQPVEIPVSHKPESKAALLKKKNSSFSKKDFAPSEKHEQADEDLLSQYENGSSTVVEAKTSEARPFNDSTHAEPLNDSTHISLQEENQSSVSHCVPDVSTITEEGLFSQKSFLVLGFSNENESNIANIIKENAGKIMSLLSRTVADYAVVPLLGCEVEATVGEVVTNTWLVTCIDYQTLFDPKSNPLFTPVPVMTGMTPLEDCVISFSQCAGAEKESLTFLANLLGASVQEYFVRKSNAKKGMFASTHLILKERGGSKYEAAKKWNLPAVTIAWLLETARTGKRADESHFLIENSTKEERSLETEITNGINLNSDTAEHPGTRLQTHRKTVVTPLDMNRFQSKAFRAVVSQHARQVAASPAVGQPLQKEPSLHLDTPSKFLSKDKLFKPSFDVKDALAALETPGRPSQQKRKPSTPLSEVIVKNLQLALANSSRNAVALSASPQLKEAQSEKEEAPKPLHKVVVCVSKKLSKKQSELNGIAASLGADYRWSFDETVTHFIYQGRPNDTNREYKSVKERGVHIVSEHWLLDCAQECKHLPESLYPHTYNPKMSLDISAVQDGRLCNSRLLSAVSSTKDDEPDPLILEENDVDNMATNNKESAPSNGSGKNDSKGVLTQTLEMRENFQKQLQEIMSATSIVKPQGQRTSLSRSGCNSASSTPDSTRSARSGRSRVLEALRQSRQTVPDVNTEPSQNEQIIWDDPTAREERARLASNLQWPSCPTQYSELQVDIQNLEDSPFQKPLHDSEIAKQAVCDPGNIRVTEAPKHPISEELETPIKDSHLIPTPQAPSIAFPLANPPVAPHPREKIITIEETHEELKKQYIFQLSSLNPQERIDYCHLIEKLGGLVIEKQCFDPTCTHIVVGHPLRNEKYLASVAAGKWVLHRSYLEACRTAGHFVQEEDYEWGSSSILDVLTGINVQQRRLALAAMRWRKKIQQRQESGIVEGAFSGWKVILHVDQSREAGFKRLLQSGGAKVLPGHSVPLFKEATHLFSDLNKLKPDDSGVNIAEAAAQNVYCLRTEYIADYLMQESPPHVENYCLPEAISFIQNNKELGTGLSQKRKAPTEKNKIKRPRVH

B1: bubble DNA (structured_DNA)
DNA 1: ATGTCCTAGCAAGCCAGAATTCGGCAGCGTCTTTTTTTTTTTTTTTTTTTTTTTTTTTTTTTTTTTTTTTTTTTTTTTTTTTTTTTTTTTTTTTTTTTTTTTTTTTTTTTTCCACGTCGGCGTCGCCACGAGC
DNA 2: GCTCGTGGCGACGCCGACGTGGTTTTTTTTTTTTTTTTTTTTTTTTTTTTTTTTTTTTTTTTTTTTTTTTTTTTTTTTTTTTTTTTTTTTTTTTTTTTTTTTGACGCTGCCGAATTCTGGCTTGCTAGGACAT
Take B1: the “apparent K (half saturation)” value was less than 20 nM in series [1] (setting [6]) and roughly 20 nM in series [2] (setting [6]).

B2: ssDNA (dT80) (ssDNA)
DNA: TTTTTTTTTTTTTTTTTTTTTTTTTTTTTTTTTTTTTTTTTTTTTTTTTTTTTTTTTTTTTTTTTTTTTTTTTTTTTTTT
As for B2, in series [3], the “apparent K (half saturation)” value was less than 40 nM.

B3: fork DNA (structured_DNA)
DNA 1: ATGTCCTAGCAAGCCAGAATTCGGCAGCGTCTTTTTTTTTTTTTTTTTTTTTTTTTTTTTTTTTTTTTTTTTTTTTTTTTTTTTTTTTTTTTTTTTTTTTTTTTTTTTTTT
DNA 2: TTTTTTTTTTTTTTTTTTTTTTTTTTTTTTTTTTTTTTTTTTTTTTTTTTTTTTTTTTTTTTTTTTTTTTTTTTTTTTTTGACGCTGCCGAATTCTGGCTTGCTAGGACAT
Regarding B3, the results for the “apparent K (half saturation)” value in series [1] (setting [7]) and in series [2] (setting [7]) were less than 20 nM and roughly 20 nM, respectively.

B4: 3'-tailed DNA (mixed)
DNA 1: GACGCTGCCGAATTCTGGCTTGCTAGGACAT
DNA 2: ATGTCCTAGCAAGCCAGAATTCGGCAGCGTCTTTTTTTTTTTTTTTTTTTTTTTTTTTTTTTTTTTTTTTTTTTTTTTTTTTTTTTTTTTTTTTTTTTTTTTTTTTTTTTT
As for B4, the figures for the “apparent K (half saturation)” value in series [2] (3' overhang 80 nt (T)) and in series [4] (3' overhang 80 nt (T)) were roughly 20 nM and roughly 80 nM, respectively.

B5: 5'-tailed DNA (mixed)
DNA 1: ATGTCCTAGCAAGCCAGAATTCGGCAGCGTC
DNA 2: TTTTTTTTTTTTTTTTTTTTTTTTTTTTTTTTTTTTTTTTTTTTTTTTTTTTTTTTTTTTTTTTTTTTTTTTTTTTTTTTGACGCTGCCGAATTCTGGCTTGCTAGGACAT
As to B5, the “apparent K (half saturation)” value was roughly 20 nM in series [2] (5' overhang 80 nt (T)) and roughly 80 nM in series [4] (5' overhang 80 nt (T)).

B6: blunt dsDNA (dsDNA)
DNA 1: ATGTCCTAGCAAGCCAGAATTCGGCAGCGTC
DNA 2: GACGCTGCCGAATTCTGGCTTGCTAGGACAT
B6: in series [5], the “apparent K (half saturation)” value was roughly 320 nM.

These data come from paper PMC5415106, “Dpb11 may function with RPA and DNA to initiate DNA replication”.
